In article PMC3293417 (Nature Communications, 2012):
Numbering of substitutions follows the chain as printed. Names may count otherwise.

B1: Beclin 1 coiled coil (CC) domain (residues 174–266), wild type, untagged (domain or fragment)
chain: DSEQLQRELKELALEEERLIQELEDVEKNRKVVAENLEKVQAEAERLDQEEAQYQREYSEFKRQQLELDDELKSVENQMRYAQMQLDKLKKTN
B2: Beclin 1 CC domain MutStab E189L/A217L/E224L/A255L (domain or fragment)
chain: B1 chain with E16L, A44L, E51L, A82L
B3: CC region of mouse UVRAG (residues 228–298) (domain or fragment)
chain: TSNELKKESECLRLKILVLRNELERQKKALGREVAFLHKQQMALQDKGSAFSTEHGKLQLQKDSLSELRKE
B4: CC region of rat Atg14L (residues 88–178) (domain or fragment)
chain: KQEEFQKEVLKAMEGKRLTDQLRWKIMSCKMRIEQLKQTICKGNEEMKKNSEGLLKNKEKNQKLYSRAQRHQEKKEKIQRHNRKLGDLVEK

Assays:
[1] = molecular target: CC region of mouse UVRAG (residues 228–298) (mouse) (UniProt Q8K245); experiment: ITC
[2] = molecular target: B4; experiment: ITC
[3] = molecular target: B3; experiment: ITC
ITC = molecular target: the molecule itself; experiment: ITC
AUC = molecular target: the molecule itself; experiment: AUC
[4] = molecular target: B1; experiment: ITC
[5] = molecular target: Beclin 1 CC domain MutM L178A/L192A (rat, UniProt Q91XJ1 174-266, L178A | L192A); experiment: ITC
[6] = molecular target: Beclin 1 CC domain MutM L178A/L196A (rat, UniProt Q91XJ1 174-266, L178A | L196A); experiment: ITC
[7] = molecular target: Beclin 1 CC domain MutM L178A/L259A (rat, UniProt Q91XJ1 174-266, L178A | L259A); experiment: ITC
[8] = molecular target: Beclin 1 CC domain MutStab E224L (rat, UniProt Q91XJ1 174-266, E224L); experiment: ITC

Chain of Beclin 1 CC domain MutM L178A/L259A (Q91XJ1 174-266 L178A/L259A): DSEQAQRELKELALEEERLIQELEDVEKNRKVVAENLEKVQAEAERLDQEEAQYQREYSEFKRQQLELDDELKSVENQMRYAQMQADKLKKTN

Work on “Beclin 1 CC domain MutM L178A/L192A (from UniProt Q91XJ1 174-266) (domain or fragment)” yielded a Kd [1] of 2240 nM.

Work on “Beclin 1 CC domain MutM L178A/L196A (from UniProt Q91XJ1 174-266) (domain or fragment)” yielded a Kd [1] of 1140 nM.

With “Beclin 1 CC domain MutM L178A/L259A (from UniProt Q91XJ1 174-266) (domain or fragment)” the Kd [1] was 70 nM.

For “Beclin 1 CC domain MutStab A217L/E224L (from UniProt Q91XJ1 174-266) (domain or fragment)”, the Kd [1] was 1440 nM and the stoichiometry N [1] was 1.

“Beclin 1 CC domain MutStab A217L/E224L/A255L (from UniProt Q91XJ1 174-266) (domain or fragment)” gave a Kd [1] of 4240 nM.

Molecule “Beclin 1 CC domain MutStab E189L (from UniProt Q91XJ1 174-266) (domain or fragment)” has a Kd [1] of 1130 nM.

“Beclin 1 CC domain MutStab E189L/A217L/E224L/A255L (from UniProt Q91XJ1 174-266) (domain or fragment)” gave a Kd [1] of 8700 nM.

Work on “Beclin 1 CC domain MutStab E189L/A255L (from UniProt Q91XJ1 174-266) (domain or fragment)” yielded a Kd [1] of 1310 nM and a stoichiometry N [1] of 1.

“Beclin 1 CC domain MutStab E224L (from UniProt Q91XJ1 174-266) (domain or fragment)” was tested, and the Kd [1] was 2430 nM.

For B1, the “stoichiometry N” value [2] was 1, the “stoichiometry N” value [3] was 1 and the Kd (ITC) was roughly 89000 nM.

In the case of B2, the “stoichiometry N” value (AUC) is reported as 4.

Work on B3 yielded a Kd [4] of 240 ± 60 nM.

Work on B4 yielded a Kd [4] of 3220 ± 950 nM, a Kd [5] of 4610 ± 500 nM and a Kd [6] of 6850 ± 840 nM. It also gave a Kd [7] of 1200 ± 130 nM and a Kd [8] of 8850 ± 400 nM.
